Experimental data published in the RNAGym collection of RNA variant scans (doi:10.1073/pnas.2313332121).

B1: TPR t1 (parent)
chain: GACCAAUCUGCCCUCAGAGCUCGAGAACAUCUUCGGAUGCAGAGGAGGCAGGCUUCGGUGGCGCGAUAGCGCCAACGUCCUCAACCUCCAAUGCAUCCCACCACAUGAUGAUGCCUGAAGAGCCUUGGUUUUUUG

Variants of: B1
Test: polymerase ribozyme fitness, log enrichment relative to wild type (log ratio); higher = more active; in vitro selection for triplet polymerase activity
Summary of the method: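 Mutant libraries of both subunits of a heterodimeric triplet polymerase ribozyme were PCR-built, transcribed, and selected once in triplicate, with frozen incubation at −7 °C and capture of gel-excised extended constructs on streptavidin beads before RT-PCR. Illumina sequencing of input and output libraries was filtered to genotypes with ≥10 input reads and ≥1 read per output. Fitness is the logarithm of genotype enrichment over wild-type enrichment, using inverse-variance-weighted replicate averages. The logarithm is base 2.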

| Variant | polymerase ribozyme fitness (log ratio) |
| --- | --- |
| U78C G110C | -3.67 |
| C73G G77U C114U | -3.31 |
| U78C G117U G128C G135C | -6.04 |
| U78G A95G U125G | -1.07 |
| C72U G93U C123G | -1.42 |
| C72U U78C U106C G117A A118U U125G | -5.09 |
| G77A G93A C124A | 1.34 |
| U78C C88U C123G U125A | 1.82 |
| C72U U92A | -3.15 |
| C72U U92C | -0.581 |
| C72G A100U | -0.592 |
| C76A C89A | -3.18 |
| C72G G93A C101A A111U | -4.69 |
| C76A U78A A118U | 0.066 |
| C73U C86U U109C G117A G135U | -6.47 |
| C72U A91C G127A | -2.46 |
| C72U A118U U130C | 0.16 |
| C73A G135C | 0.342 |
| C73G A84U | -1.52 |
| C72G U130G | -1.24 |
| G77C C86G | -1.47 |

| Variant | polymerase ribozyme fitness (log ratio) |
| --- | --- |
| U78C C82A C85U G93A | -1.53 |
| C73A A100C A119U | -1.6 |
| A74C U109A | -5.88 |
| C73A A103G G110A | -6.42 |
| C73U G110U G120A | -2.15 |
| C76G A84U U133G | -0.998 |
| C76U G127A | -1.52 |
| C73U C114U C123A | -3.41 |
| C73A C114G | -2.17 |
| C76G C102U C104A | -1.03 |
| C73A U81A A90G | -0.106 |
| U78A C97A | -4.8 |
| G77U C101G | -1.96 |
| C73A C89A A118U | -1.26 |
| G77A C94G | -1.19 |
| C72U U81G U87A C102A | -7.12 |
| A74G U109G | -4.6 |
| A74C A105C | -2.34 |
| U78C U109A G128A | -4.56 |
| C72G G110C | -2.42 |
| C73U A83C | -2.2 |

| Variant | polymerase ribozyme fitness (log ratio) |
| --- | --- |
| A74G G120U G135C | 0.597 |
| C73A C114G U130A | -2.99 |
| C72U C73U | -1.09 |
| G77A A91G | -1.01 |
| G77U C82U | -0.811 |
| C73U U116C | -0.498 |
| A74G U106A U125A | -0.353 |
| U78C C80U | -0.608 |
| G77A A111C A119U C123A U131C | -2.38 |
| A74G C80A C82U A118U | -2.93 |
| C72U A83U | -1.1 |
| U78C C80U C89U G117C A119G | -1.72 |
| C72U C79G | -1.97 |
| C73U A95U A111U | -2.76 |
| C72G C94G G113A G122U | -3.41 |
| C73G A100U | -1.09 |
| C72G U78C | -0.909 |
| U78C C102U | -2.14 |
| C73U C80U G135C | -0.322 |
| C76U C88A | -1.29 |
| C72U C88G A90C A91G | -4.6 |

| Variant | polymerase ribozyme fitness (log ratio) |
| --- | --- |
| C73A C97U | -0.11 |
| C79A C124A | 0.574 |
| C72U U116A | -3.04 |
| C72U A84U C101U | -0.839 |
| C79A C80A C88A | -5.16 |
| C73G U130C | -0.482 |
| C73U A83U C104A G110U | -4.18 |
| C73A G128U | -2.16 |
| C72U G120U | -0.256 |
| C72G G128C | -2.25 |
| U78C A84G C97G | -5.87 |
| C76A U78A U96A | -1.43 |
| G77C U125A | -0.685 |
| A74U C80U C82G | -0.403 |
| G77A A90G | -0.174 |
| C73A G113A | -0.815 |
| C72U C79G G113A | -4.23 |
| C72G C79G U133A | -1.07 |
| C72G A108G G120A C124G U131G | -1.26 |
| G77A C80U C98A C123G | -4.14 |
| A74U G113A U129A | -1.94 |
